Data as given in patent US20200247894A1 (Regeneron, published 2020).

T1: Human IL2Rγ extracellular domain expressed with a C-terminal myc-myc-hexahistidine tag (human)
T1 construct: also called hIL-2Rg-MMH; hIL-2RG-MMH
T1 chain: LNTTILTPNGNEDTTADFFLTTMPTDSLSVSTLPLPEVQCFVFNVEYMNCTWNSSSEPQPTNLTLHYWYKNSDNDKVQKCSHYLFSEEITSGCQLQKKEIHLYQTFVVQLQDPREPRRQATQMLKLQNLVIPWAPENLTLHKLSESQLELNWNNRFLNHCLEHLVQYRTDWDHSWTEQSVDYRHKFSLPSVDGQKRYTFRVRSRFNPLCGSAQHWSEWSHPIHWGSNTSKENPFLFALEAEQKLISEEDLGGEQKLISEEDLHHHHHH

T2: Macaca fascicularis IL2Rγ extracellular domain expressed with a C-terminal myc-myc-hexahistidine tag (Macaca fascicularis)
T2 construct: also called mfIL-2Rg-MMH; mfIL-2RG-MMH
T2 chain: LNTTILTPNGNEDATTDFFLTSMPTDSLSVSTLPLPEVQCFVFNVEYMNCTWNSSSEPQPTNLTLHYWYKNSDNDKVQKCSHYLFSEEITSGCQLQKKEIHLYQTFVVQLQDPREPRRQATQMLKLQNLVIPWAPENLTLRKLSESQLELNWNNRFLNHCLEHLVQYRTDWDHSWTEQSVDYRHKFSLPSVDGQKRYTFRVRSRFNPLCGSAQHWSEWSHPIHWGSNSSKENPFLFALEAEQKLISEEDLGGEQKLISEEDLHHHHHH

T3: Macaca fascicularis IL2Rγ extracellular domain expressed with a C-terminal myc-myc-hexahistidine tag (Macaca fascicularis)
T3 construct: also called mfIL-2Rg-MMH; mfIL-2RG-MMH
T3 chain: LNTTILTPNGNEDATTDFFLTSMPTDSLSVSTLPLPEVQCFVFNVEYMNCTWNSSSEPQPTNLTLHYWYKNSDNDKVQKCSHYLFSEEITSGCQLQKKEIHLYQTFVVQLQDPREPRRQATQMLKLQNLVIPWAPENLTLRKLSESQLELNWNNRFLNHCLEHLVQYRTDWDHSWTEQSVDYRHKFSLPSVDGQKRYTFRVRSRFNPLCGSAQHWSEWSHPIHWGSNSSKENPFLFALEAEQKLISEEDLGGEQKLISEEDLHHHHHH

T4: Human IL2Rγ extracellular domain expressed with a C-terminal myc-myc-hexahistidine tag (human)
T4 construct: also called hIL-2Rg-MMH; hIL-2RG-MMH
T4 chain: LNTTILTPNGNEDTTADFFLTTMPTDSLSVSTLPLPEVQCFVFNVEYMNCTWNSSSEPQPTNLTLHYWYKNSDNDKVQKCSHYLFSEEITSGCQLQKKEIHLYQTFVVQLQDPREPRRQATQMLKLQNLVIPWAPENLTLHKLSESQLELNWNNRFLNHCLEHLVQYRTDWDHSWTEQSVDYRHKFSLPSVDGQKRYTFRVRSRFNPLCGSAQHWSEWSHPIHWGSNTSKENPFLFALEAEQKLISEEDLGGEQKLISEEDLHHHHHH


Columns and labels:
[1] = biological target: T1, Human IL2Rγ extracellular domain …; assay: SPR, captured mAb, 37C, dissociation pH 7.4
Description: (§1) The dissociation rate constant (kd) for binding of IL-2Rγ reagents to purified anti-IL2Rγ monoclonal antibodies was determined using a real-time surface plasmon resonance based Biacore 4000 biosensor platform. […] The CM5 Biacore sensor surface derivatized by amine coupling with monoclonal mouse anti-human Fc antibody (GE, Catalog # BR-1008-39) was used to capture anti-IL2Rγ monoclonal antibodies expressed with human IgG4 Fc. All the IL2Rγ reagents were expressed with a C-terminal myc-myc-hexahistidine tag (subsequently referred to with a -MMH suffix). […] The dissociation of bound IL-2Rg-MMH was performed in PBS-T-pH7.4 or PBS-T-pH6.0 running buffers for 6 minutes.
(§2) Dissociation rate constants (kd) in two running buffers were determined by fitting the real-time binding sensorgrams to a 1:1 binding model using Scrubber 2.0c curve-fitting software. Values of dissociation rate for […] mAb binding to hIL-2RG-MMH and mfIL-2RG-MMH at 25° C. and 37° C. in PBS-T-pH7.4 and PBS-T-pH6.0 is shown in Table 2-1 through Table 2-8.

[2] = biological target: T1, Human IL2Rγ extracellular domain …; assay: SPR, captured mAb, 25C, dissociation pH 6.0
Description: as §1, §2

[3] = biological target: T2, Macaca fascicularis IL2Rγ extracellular …; assay: SPR, captured mAb, 25C, dissociation pH 6.0
Description: as §1, §2

[4] = biological target: T1, Human IL2Rγ extracellular domain …; assay: SPR, captured mAb, 37C, dissociation pH 6.0
Description: as §1, §2

[5] = biological target: T1, Human IL2Rγ extracellular domain …; assay: SPR, captured mAb, 25C, dissociation pH 7.4
Description: as §1, §2

[6] = biological target: T2, Macaca fascicularis IL2Rγ extracellular …; assay: SPR, captured mAb, 25C, dissociation pH 7.4
Description: as §1, §2

[7] = biological target: T3, Macaca fascicularis IL2Rγ extracellular …; assay: SPR Biacore 4000, mAb captured by anti-hFc, 37C, dissociation in PBS-T pH 7.4
Description: as §1, §2

[8] = biological target: T4, Human IL2Rγ extracellular domain …; assay: SPR Biacore 4000, mAb captured by anti-hFc, HBS-ET, 37C
Description: (§3) Equilibrium dissociation constants (KD values) for IL-2Rγ binding to purified anti-IL2Rγ monoclonal antibodies were determined using a Biacore 4000 instrument equipped with a real-time surface plasmon resonance biosensor. All binding studies were performed in 10 mM HEPES, 150 mM NaCl, 3 mM EDTA, and 0.05% v/v Surfactant Tween-20, pH 7.4 (HBS-ET) running buffer at 25° C. and 37° C. The Biacore sensor surface was first derivatized by amine coupling with a monoclonal mouse anti-human Fc antibody (GE, # BR-1008-39) to capture anti-IL2Rγ monoclonal antibodies.
(§4) The dissociation of monoclonal antibody bound IL2Rγ reagents were monitored for 8-10 minutes in HBS-ET running buffer. Kinetic association (kₐ) and dissociation (kd) rate constants were determined by fitting the real-time sensorgrams to a 1:1 binding model using Scrubber 2.0c curve fitting software. Binding dissociation equilibrium constants (KD) and dissociative half-lives (t_{1/2}) were calculated from the kinetic rate constants as: […]

[9] = biological target: T3, Macaca fascicularis IL2Rγ extracellular …; assay: SPR Biacore 4000, mAb captured by anti-hFc, 37C, dissociation in PBS-T pH 6.0
Description: as §1, §2

[10] = biological target: T4, Human IL2Rγ extracellular domain …; assay: SPR Biacore 4000, mAb captured by anti-hFc, HBS-ET, 25C
Description: as §3, §4

[11] = biological target: T3, Macaca fascicularis IL2Rγ extracellular …; assay: as above
Description: as §3, §4

100 nM Ag Bound (RU) [7] [RU] | 100 nM Ag Bound [8] [RU] | Kd [8] [nM] | koff [8] [s⁻¹] | kon [8] [M⁻¹ s⁻¹] | t1/2 [8] [min] | 100 nM Ag Bound (RU) [9] [RU] | 100 nM Ag Bound [10] [RU] | Kd [10] [nM] | koff [10] [s⁻¹] | kon [10] [M⁻¹ s⁻¹] | t1/2 [10] [min] | 100 nM Ag Bound [11] [RU] | Kd [11] [nM] | koff [11] [s⁻¹] | kon [11] [M⁻¹ s⁻¹] | t1/2 [11] [min] | koff [7] [s⁻¹] | t1/2 [7] [min] | koff [9] [s⁻¹] | Binder | further results
17 | 7 | 113 | 0.0691 | 611000 | 0.2 | 13 | 12 | 336 | 0.0575 | 171000 | 0.2 | 26 | 143 | 0.014 | 97800 | 0.8 |  |  |  | H4H13545P2 (antibody, human IgG4 S228P, kappa, V domains shown, anti-IL2Rγ monoclonal antibody expressed with human IgG4 Fc) VH: QVQLQQSGPGLVKPSQTLSLTCDISGDSVSSNIATWNWIRQSPSRGLEWLGRTYYRSKWYKDYAVSVKSRITINPDTSKNQFSLQVNSVTPEDTAVYYCARMTGPRYYFEYWGQGTLVTVSS VL: not shown | 
100 | 103 | 5.01 | 0.00078 | 156000 | 15 | 91 | 72 | 2.41 | 0.000252 | 105000 | 46 | 82 | 1.85 | 0.000315 | 170000 | 37 | 0.000512 | 23 | 0.0015 | H4H13541P (antibody, human IgG4 S228P, kappa, V domains shown, anti-IL2Rγ monoclonal antibody expressed with human IgG4 Fc) VH: EVQLVESGGGVVRPGGSLRLSCAASGFIFDDYDMSWVRQPPGRGLEWVSGIDWFGGTRGYADSMKGRFTISRDNAKNSLYLQMNSLRVEDTAFYYCARGGAIVGAVTPFDYWGQGTLVTVSS VL: DIQMTQSPSSLSASVGNRVTLSCRASQSINTYLSWYQQRPGKAPKLLIYAASSLQSGVPSRFSGSGAGTDFTLTISSLQPEDFATYYCQQSYSAPLTFGGGTKVEIKR | t1/2 [9]: 8 min

More lines, now with the values behind:

Binder | 100 nM Ag Bound (RU) [7] [RU] | 100 nM Ag Bound [8] [RU] | Kd [8] [nM] | koff [8] [s⁻¹] | kon [8] [M⁻¹ s⁻¹] | t1/2 [8] [min] | 100 nM Ag Bound (RU) [9] [RU] | 100 nM Ag Bound [10] [RU] | Kd [10] [nM] | koff [10] [s⁻¹] | kon [10] [M⁻¹ s⁻¹] | t1/2 [10] [min] | 100 nM Ag Bound [11] [RU] | Kd [11] [nM] | koff [11] [s⁻¹] | kon [11] [M⁻¹ s⁻¹] | t1/2 [11] [min] | koff [7] [s⁻¹] | t1/2 [7] [min] | koff [9] [s⁻¹] | further results
H4H13545P2 (antibody, human IgG4 S228P, kappa, V domains shown, anti-IL2Rgamma mAb expressed with human IgG4 Fc) VH: QVQLQQSGPGLVKPSQTLSLTCDISGDSVSSNIATWNWIRQSPSRGLEWLGRTYYRSKWYKDYAVSVKSRITINPDTSKNQFSLQVNSVTPEDTAVYYCARMTGPRYYFEYWGQGTLVTVSS VL: not shown |  |  |  |  |  |  |  |  |  |  |  |  |  |  |  |  |  |  |  |  | 100 nM Ag Bound (RU) [1]: 7 RU; 100 nM Ag Bound (RU) [2]: 11 RU; koff [2]: 0.0334 s⁻¹; t1/2 [2]: 0.3 min; 100 nM Ag Bound (RU) [3]: 20 RU; koff [3]: 0.00935 s⁻¹; t1/2 [3]: 1.2 min; 100 nM Ag Bound (RU) [4]: 6 RU; 100 nM Ag Bound (RU) [5]: 15 RU; koff [5]: 0.0213 s⁻¹; t1/2 [5]: 0.5 min; 100 nM Ag Bound (RU) [6]: 30 RU; koff [6]: 0.00751 s⁻¹; t1/2 [6]: 1.5 min
H4H13544P2 (antibody, human IgG4 S228P, kappa, V domains shown, anti-IL2Rγ monoclonal antibody expressed with human IgG4 Fc) VH: QLQLQESGPGLVKPSETLSLTCTVSGGSISIKNYYWGWIRQPPGKGLEWIGSIYYSGTTYYNPSLKSRVTISVDTSKNQFSLKLSSVTAADTAVYHCARHGYSYGHGWFDPWGQGTLVTVSS VL: not shown | 58 | 49 | 103 | 0.00782 | 76000 | 1.5 | 43 | 51 | 28.7 | 0.00135 | 47200 | 9 | 60 | 24.6 | 0.00127 | 51700 | 9 | 0.00362 | 3.2 | 0.00781 | t1/2 [9]: 1.5 min
